Measurements taken from article PMC12343034, “ArnR binds a [4Fe–4S] cluster and indirectly senses anaerobicity in Corynebacteria”.

Legend:
ArnR ([4Fe-4S] form) [1] = target: T1, ArnR ([4Fe-4S] form) (Corynebacterium glutamicum ATCC 13032, UniProt Q8NR72 1-230); experiment: EMSA; [4Fe-4S]; maximal binding at ~315 nM [4Fe-4S] (~32-fold over DNA); SPR: HBS+P (10 mM HEPES, 150 mM NaCl, surfactant P20) with 1 mM DTT, pH 7.4, 25 C, anaerobic; EMSA: 10 mM Tris, 54 mM KCl, 0.3% glycerol, pH 7.5, on ice; native MS: DNA in 100 mM ammonium acetate, pH 8; details: protein: recombinant; tags: C-terminal His; chain copies: 2; label: 5' 6-FAM on strand 1; blunt
T1 sequence: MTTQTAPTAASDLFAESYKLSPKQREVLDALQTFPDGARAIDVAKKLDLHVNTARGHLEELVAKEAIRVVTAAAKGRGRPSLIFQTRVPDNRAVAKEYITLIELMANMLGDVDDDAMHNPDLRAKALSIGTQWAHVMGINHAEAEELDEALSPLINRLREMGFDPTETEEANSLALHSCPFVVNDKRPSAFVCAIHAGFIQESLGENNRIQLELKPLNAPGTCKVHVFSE

ArnR ([4Fe-4S] form) [2] = target: T1, ArnR ([4Fe-4S] form); experiment: native MS; [4Fe-4S], two clusters per dimer; complex at 71438 Da; [4Fe-4S]:[DNA] ~1; SPR: HBS+P (10 mM HEPES, 150 mM NaCl, surfactant P20) with 1 mM DTT, pH 7.4, 25 C, anaerobic; EMSA: 10 mM Tris, 54 mM KCl, 0.3% glycerol, pH 7.5, on ice; native MS: DNA in 100 mM ammonium acetate, pH 8; details: protein: recombinant; tags: C-terminal His; chain copies: 2; blunt

B1: hmp promoter 80 bp (JC01_F/JC02_R) (dsDNA)
DNA 1: CGCCTTTCCATGCTTCATGGGTTAATTTCTACGGATTTAATCTAATTAAATAAATCCCAGGATCCAAGCAATTTGGCCTT
DNA 2: AAGGCCAAATTGCTTGGATCCTGGGATTTATTTAATTAGATTAAATCCGTAGAAATTAACCCATGAAGCATGGAAAGGCG
B1: binds (ArnR ([4Fe-4S] form) [1]).

B2: hmp promoter 30 bp (JC05_F/JC06_R) (dsDNA)
DNA 1: GGATTTAATCTAATTAAATAAATCCCAGGA
DNA 2: TCCTGGGATTTATTTAATTAGATTAAATCC
B2: binds (ArnR ([4Fe-4S] form) [2]).
